Experiment [1] addresses human glucagon receptor (glucagon-R) (human, UniProt P47871). In words: cell-based or functional assay.
The target in experiment [2] is human glucagon-like peptide 1 receptor (GLP-1R) (human, UniProt P43220). Briefly: cell-based or functional assay.

Starred links: 1 amine or outer side, 2 acyl side, 3 side chain; linkers in the order of their positions; H or OH if unused. Non-standard residues stand in square brackets, D forms with d. Groups on a side chain read outwards from the residue. *: point of attachment. γGlu = O=C(O)[C@H](CCC(=O)[*:2])N[*:1]; Palmitoyl = CCCCCCCCCCCCCCCC(=O)*; Aib = CC(C)(N)C(=O)O

B1: Compound 12 (peptide)
peptide: H-H[Aib]QFTFTSDYSKYLDSK([γGlu-Palmitoyl])AAHDFVEWLLSA-NH2
SMILES: CCCCCCCCCCCCCCCC(=O)N[C@@H](CCC(=O)NCCCC[C@H](NC(=O)[C@H](CO)NC(=O)[C@H](CC(=O)O)NC(=O)[C@H](CC(C)C)NC(=O)[C@H](Cc1ccc(O)cc1)NC(=O)[C@H](CCCCN)NC(=O)[C@H](CO)NC(=O)[C@H](Cc1ccc(O)cc1)NC(=O)[C@H](CC(=O)O)NC(=O)[C@H](CO)NC(=O)[C@@H](NC(=O)[C@H](Cc1ccccc1)NC(=O)[C@@H](NC(=O)[C@H](Cc1ccccc1)NC(=O)[C@H](CCC(N)=O)NC(=O)C(C)(C)NC(=O)[C@@H](N)Cc1c[nH]cn1)[C@@H](C)O)[C@@H](C)O)C(=O)N[C@@H](C)C(=O)N[C@@H](C)C(=O)N[C@@H](Cc1c[nH]cn1)C(=O)N[C@@H](CC(=O)O)C(=O)N[C@@H](Cc1ccccc1)C(=O)N[C@H](C(=O)N[C@@H](CCC(=O)O)C(=O)N[C@@H](Cc1c[nH]c2ccccc12)C(=O)N[C@@H](CC(C)C)C(=O)N[C@@H](CC(C)C)C(=O)N[C@@H](CO)C(=O)N[C@@H](C)C(N)=O)C(C)C)C(=O)O
Take B1: the “EC50 (nM) GluR, cAMP formation” value in experiment [1] came out at 25 nM. Further, in experiment [2], the “EC50 (nM) GLP-1R, cAMP formation” value came to 12 nM.

B2: Compound 10 (peptide)
peptide: H-H[Aib]QETFTSDYSKYLDSK([γGlu-Palmitoyl])AAHDFVEWLLSA-NH2
SMILES: CCCCCCCCCCCCCCCC(=O)N[C@@H](CCC(=O)NCCCC[C@H](NC(=O)[C@H](CO)NC(=O)[C@H](CC(=O)O)NC(=O)[C@H](CC(C)C)NC(=O)[C@H](Cc1ccc(O)cc1)NC(=O)[C@H](CCCCN)NC(=O)[C@H](CO)NC(=O)[C@H](Cc1ccc(O)cc1)NC(=O)[C@H](CC(=O)O)NC(=O)[C@H](CO)NC(=O)[C@@H](NC(=O)[C@H](Cc1ccccc1)NC(=O)[C@@H](NC(=O)[C@H](CCC(=O)O)NC(=O)[C@H](CCC(N)=O)NC(=O)C(C)(C)NC(=O)[C@@H](N)Cc1c[nH]cn1)[C@@H](C)O)[C@@H](C)O)C(=O)N[C@@H](C)C(=O)N[C@@H](C)C(=O)N[C@@H](Cc1c[nH]cn1)C(=O)N[C@@H](CC(=O)O)C(=O)N[C@@H](Cc1ccccc1)C(=O)N[C@H](C(=O)N[C@@H](CCC(=O)O)C(=O)N[C@@H](Cc1c[nH]c2ccccc12)C(=O)N[C@@H](CC(C)C)C(=O)N[C@@H](CC(C)C)C(=O)N[C@@H](CO)C(=O)N[C@@H](C)C(N)=O)C(C)C)C(=O)O
Turning to B2, the “EC50 (nM) GluR, cAMP formation” value in experiment [1] is 15 nM. Moreover, the “EC50 (nM) GLP-1R, cAMP formation” value in experiment [2] was 20 nM.

B3: Compound 7 (peptide)
peptide: H-H[Aib]EGTFTSDYSKYLDSK([γGlu-Palmitoyl])AAHDFVEWLLSA-NH2
SMILES: CCCCCCCCCCCCCCCC(=O)N[C@@H](CCC(=O)NCCCC[C@H](NC(=O)[C@H](CO)NC(=O)[C@H](CC(=O)O)NC(=O)[C@H](CC(C)C)NC(=O)[C@H](Cc1ccc(O)cc1)NC(=O)[C@H](CCCCN)NC(=O)[C@H](CO)NC(=O)[C@H](Cc1ccc(O)cc1)NC(=O)[C@H](CC(=O)O)NC(=O)[C@H](CO)NC(=O)[C@@H](NC(=O)[C@H](Cc1ccccc1)NC(=O)[C@@H](NC(=O)CNC(=O)[C@H](CCC(=O)O)NC(=O)C(C)(C)NC(=O)[C@@H](N)Cc1c[nH]cn1)[C@@H](C)O)[C@@H](C)O)C(=O)N[C@@H](C)C(=O)N[C@@H](C)C(=O)N[C@@H](Cc1c[nH]cn1)C(=O)N[C@@H](CC(=O)O)C(=O)N[C@@H](Cc1ccccc1)C(=O)N[C@H](C(=O)N[C@@H](CCC(=O)O)C(=O)N[C@@H](Cc1c[nH]c2ccccc12)C(=O)N[C@@H](CC(C)C)C(=O)N[C@@H](CC(C)C)C(=O)N[C@@H](CO)C(=O)N[C@@H](C)C(N)=O)C(C)C)C(=O)O
As for B3, the “EC50 (nM) GluR, cAMP formation” value in experiment [1] was determined as 26 nM. Moreover, in experiment [2], the “EC50 (nM) GLP-1R, cAMP formation” value amounted to 0.01 nM.

B4: human GLP-1 (ligand)
peptide: RSLQDTEEKSRSFSASQADPLSDPDQMNEDKRHSQGTFTSDYSKYLDSRRAQDFVQWLMNTKRNRNNIAKRHDEFERHAEGTFTSDVSSYLEGQAAKEFIAWLVKGRGRRDFPEEVAIVEELGRRHADGSFSDEMNTILDNLAARDFINWLIQTKITDRK
Take B4: the “EC50 (nM) GluR, cAMP formation” value in experiment [1] worked out at 100000 nM.

B5: Compound 11 (peptide)
peptide: H-H[Aib]Q[Aib]TFTSDYSKYLDSK([γGlu-Palmitoyl])AAHDFVEWLLSA-NH2
SMILES: CCCCCCCCCCCCCCCC(=O)N[C@@H](CCC(=O)NCCCC[C@H](NC(=O)[C@H](CO)NC(=O)[C@H](CC(=O)O)NC(=O)[C@H](CC(C)C)NC(=O)[C@H](Cc1ccc(O)cc1)NC(=O)[C@H](CCCCN)NC(=O)[C@H](CO)NC(=O)[C@H](Cc1ccc(O)cc1)NC(=O)[C@H](CC(=O)O)NC(=O)[C@H](CO)NC(=O)[C@@H](NC(=O)[C@H](Cc1ccccc1)NC(=O)[C@@H](NC(=O)C(C)(C)NC(=O)[C@H](CCC(N)=O)NC(=O)C(C)(C)NC(=O)[C@@H](N)Cc1c[nH]cn1)[C@@H](C)O)[C@@H](C)O)C(=O)N[C@@H](C)C(=O)N[C@@H](C)C(=O)N[C@@H](Cc1c[nH]cn1)C(=O)N[C@@H](CC(=O)O)C(=O)N[C@@H](Cc1ccccc1)C(=O)N[C@H](C(=O)N[C@@H](CCC(=O)O)C(=O)N[C@@H](Cc1c[nH]c2ccccc12)C(=O)N[C@@H](CC(C)C)C(=O)N[C@@H](CC(C)C)C(=O)N[C@@H](CO)C(=O)N[C@@H](C)C(N)=O)C(C)C)C(=O)O
In the case of B5, the “EC50 (nM) GluR, cAMP formation” value in experiment [1] turned out to be 5.1 nM. Further, in experiment [2], the “EC50 (nM) GLP-1R, cAMP formation” value stood at 22 nM.

B6: Compound 9 (peptide)
peptide: H-HSQ[Aib]TFTSDYSKYLDSK([γGlu-Palmitoyl])AAHDFVEWLLSA-NH2
SMILES: CCCCCCCCCCCCCCCC(=O)N[C@@H](CCC(=O)NCCCC[C@H](NC(=O)[C@H](CO)NC(=O)[C@H](CC(=O)O)NC(=O)[C@H](CC(C)C)NC(=O)[C@H](Cc1ccc(O)cc1)NC(=O)[C@H](CCCCN)NC(=O)[C@H](CO)NC(=O)[C@H](Cc1ccc(O)cc1)NC(=O)[C@H](CC(=O)O)NC(=O)[C@H](CO)NC(=O)[C@@H](NC(=O)[C@H](Cc1ccccc1)NC(=O)[C@@H](NC(=O)C(C)(C)NC(=O)[C@H](CCC(N)=O)NC(=O)[C@H](CO)NC(=O)[C@@H](N)Cc1c[nH]cn1)[C@@H](C)O)[C@@H](C)O)C(=O)N[C@@H](C)C(=O)N[C@@H](C)C(=O)N[C@@H](Cc1c[nH]cn1)C(=O)N[C@@H](CC(=O)O)C(=O)N[C@@H](Cc1ccccc1)C(=O)N[C@H](C(=O)N[C@@H](CCC(=O)O)C(=O)N[C@@H](Cc1c[nH]c2ccccc12)C(=O)N[C@@H](CC(C)C)C(=O)N[C@@H](CC(C)C)C(=O)N[C@@H](CO)C(=O)N[C@@H](C)C(N)=O)C(C)C)C(=O)O
Regarding B6, the “EC50 (nM) GluR, cAMP formation” value in experiment [1] worked out at 30 nM. For the same molecule, in experiment [2], the “EC50 (nM) GLP-1R, cAMP formation” value amounted to 16 nM.

B7: Compound 5 (peptide)
peptide: H-H[Aib]HGTFTSDYSKYLDSK([γGlu-Palmitoyl])AAHEFVEWLLEA-NH2
SMILES: CCCCCCCCCCCCCCCC(=O)N[C@@H](CCC(=O)NCCCC[C@H](NC(=O)[C@H](CO)NC(=O)[C@H](CC(=O)O)NC(=O)[C@H](CC(C)C)NC(=O)[C@H](Cc1ccc(O)cc1)NC(=O)[C@H](CCCCN)NC(=O)[C@H](CO)NC(=O)[C@H](Cc1ccc(O)cc1)NC(=O)[C@H](CC(=O)O)NC(=O)[C@H](CO)NC(=O)[C@@H](NC(=O)[C@H](Cc1ccccc1)NC(=O)[C@@H](NC(=O)CNC(=O)[C@H](Cc1c[nH]cn1)NC(=O)C(C)(C)NC(=O)[C@@H](N)Cc1c[nH]cn1)[C@@H](C)O)[C@@H](C)O)C(=O)N[C@@H](C)C(=O)N[C@@H](C)C(=O)N[C@@H](Cc1c[nH]cn1)C(=O)N[C@@H](CCC(=O)O)C(=O)N[C@@H](Cc1ccccc1)C(=O)N[C@H](C(=O)N[C@@H](CCC(=O)O)C(=O)N[C@@H](Cc1c[nH]c2ccccc12)C(=O)N[C@@H](CC(C)C)C(=O)N[C@@H](CC(C)C)C(=O)N[C@@H](CCC(=O)O)C(=O)N[C@@H](C)C(N)=O)C(C)C)C(=O)O
For the molecule B7, the “EC50 (nM) GluR, cAMP formation” value in experiment [1] came out at 0.15 nM. Moreover, the “EC50 (nM) GLP-1R, cAMP formation” value in experiment [2] was found to be 0.16 nM.

B8: Compound 8 (peptide)
peptide: H-H[Aib]QATFTSDYSKYLDSK([γGlu-Palmitoyl])AAHDFVEWLLSA-NH2
SMILES: CCCCCCCCCCCCCCCC(=O)N[C@@H](CCC(=O)NCCCC[C@H](NC(=O)[C@H](CO)NC(=O)[C@H](CC(=O)O)NC(=O)[C@H](CC(C)C)NC(=O)[C@H](Cc1ccc(O)cc1)NC(=O)[C@H](CCCCN)NC(=O)[C@H](CO)NC(=O)[C@H](Cc1ccc(O)cc1)NC(=O)[C@H](CC(=O)O)NC(=O)[C@H](CO)NC(=O)[C@@H](NC(=O)[C@H](Cc1ccccc1)NC(=O)[C@@H](NC(=O)[C@H](C)NC(=O)[C@H](CCC(N)=O)NC(=O)C(C)(C)NC(=O)[C@@H](N)Cc1c[nH]cn1)[C@@H](C)O)[C@@H](C)O)C(=O)N[C@@H](C)C(=O)N[C@@H](C)C(=O)N[C@@H](Cc1c[nH]cn1)C(=O)N[C@@H](CC(=O)O)C(=O)N[C@@H](Cc1ccccc1)C(=O)N[C@H](C(=O)N[C@@H](CCC(=O)O)C(=O)N[C@@H](Cc1c[nH]c2ccccc12)C(=O)N[C@@H](CC(C)C)C(=O)N[C@@H](CC(C)C)C(=O)N[C@@H](CO)C(=O)N[C@@H](C)C(N)=O)C(C)C)C(=O)O
Consider B8, for which, in experiment [1], the “EC50 (nM) GluR, cAMP formation” value worked out at 3 nM and the “EC50 (nM) GluR, cAMP formation, earlier determination” value is 23 nM. Moreover, in experiment [2], the “EC50 (nM) GLP-1R, cAMP formation” value was 8.2 nM.

B9: Compound 4 (peptide)
peptide: H-H[Aib]PGTFTSDYSKYLDSK([γGlu-Palmitoyl])AAHDFVEWLLSA-NH2
SMILES: CCCCCCCCCCCCCCCC(=O)N[C@@H](CCC(=O)NCCCC[C@H](NC(=O)[C@H](CO)NC(=O)[C@H](CC(=O)O)NC(=O)[C@H](CC(C)C)NC(=O)[C@H](Cc1ccc(O)cc1)NC(=O)[C@H](CCCCN)NC(=O)[C@H](CO)NC(=O)[C@H](Cc1ccc(O)cc1)NC(=O)[C@H](CC(=O)O)NC(=O)[C@H](CO)NC(=O)[C@@H](NC(=O)[C@H](Cc1ccccc1)NC(=O)[C@@H](NC(=O)CNC(=O)[C@@H]1CCCN1C(=O)C(C)(C)NC(=O)[C@@H](N)Cc1c[nH]cn1)[C@@H](C)O)[C@@H](C)O)C(=O)N[C@@H](C)C(=O)N[C@@H](C)C(=O)N[C@@H](Cc1c[nH]cn1)C(=O)N[C@@H](CC(=O)O)C(=O)N[C@@H](Cc1ccccc1)C(=O)N[C@H](C(=O)N[C@@H](CCC(=O)O)C(=O)N[C@@H](Cc1c[nH]c2ccccc12)C(=O)N[C@@H](CC(C)C)C(=O)N[C@@H](CC(C)C)C(=O)N[C@@H](CO)C(=O)N[C@@H](C)C(N)=O)C(C)C)C(=O)O
As to B9, in experiment [1], the “EC50 (nM) GluR, cAMP formation” value came to 0.48 nM. The “EC50 (nM) GLP-1R, cAMP formation” value in experiment [2] turned out to be 0.1 nM.

Values taken from patent US20130157929A1, “GLUCAGON ANALOGUES” (ZEALAND PHARMA A/S, published 2013).
